Article PMC10520678

What was measured:
TRIM21 [1] = target: TRIM21 (UniProt P19474); assay: anti-Flag co-IP, TRIM21 blot; conditions: reference: wild type, EGF-treated; sites Y288
TRIM21 [2] = target: TRIM21 (UniProt P19474); assay: co-IP, blot; conditions: reference: wild type CD47, c-Src CA expressed; sites Y288

Substance	binding against the reference (TRIM21 [1])	binding against the reference (TRIM21 [2])
CD47 (from UniProt Q08722) Y288F, EGF-treated	stronger	
CD47 (from UniProt Q08722) Y288F, c-Src CA expressed		stronger
